In patent EP4671274A1:

Biological target: recombinant His-tagged canine interleukin-13 (cIL-13) (canine) (UniProt Q9N0W9)
Test: cell-based or functional assay

recombinant His-tagged canine interleukin-13 (cIL-13) (canine), sequence (Q9N0W9 other isoform, or with tags, fused parts or gaps): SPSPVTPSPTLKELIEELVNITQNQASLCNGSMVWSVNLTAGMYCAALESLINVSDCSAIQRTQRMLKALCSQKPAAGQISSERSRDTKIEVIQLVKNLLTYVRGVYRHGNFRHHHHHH

IL-13-dependent TF-1 cell proliferation inhibition IC50: 2.9 to 4.2 nM | Inhibitory Activity on TF-1 Cell Proliferation, IC50: 3.97 nM
B1: mouse monoclonal antibody 32A10-#20 (antibody, from another filing, V domains shown)
VH: EVQLQQSGPELVKPGASVKVSCKTSGYSFTDYPIYWVRQSHGESLEWIGYIDPYNGGTTYNQNFKDKATLTVDKSSSTAFMHLNSLTSEDSAVYFCATAVVATDVMENWGQGTSVTVSS
VL: DIVLTQSQKFMSTSVGDRVSITCKASQNVRNAVAWFQQKPGQSPKALIYLASNRYTGVPDHFTGSGSGTDFTLTISNVQSEDLADYFCLQHWNYPLTFGAGTKLELK
